Measured values as given in article PMC3896610.
Like-named read-outs stand apart in the source and are kept apart here.

How the values were obtained:
IgG1-K409R-CD20 (human) [1] = assay: analytical cation-exchange chromatography
IgG1-K409R-CD20 (human) [2] = assay: analytical cation-exchange chromatography; remark: listed apart in the source

B1: IgG1-F405L-EGFR (antibody, V domains shown)
VH: QVQLVESGGGVVQPGRSLRLSCAASGFTFSTYGMHWVRQAPGKGLEWVAVIWDDGSYKYYGDSVKGRFTISRDNSKNTLYLQMNSLRAEDTAVYYCARDGITMVRGVMKDYFDYWGQGTLVTVSS
VL: AIQLTQSPSSLSASVGDRVTITCRASQDISSALVWYQQKPGKAPKLLIYDASSLESGVPSRFSGSESGTDFTLTISSLQPEDFATYYCQQFNSYPLTFGGGTKVEIK
- % bsIgG1-EGFRxCD20 by CIEX (IgG1-K409R-CD20 (human) [1]): 95%
- % bsIgG1-EGFRxCD20 by CIEX (IgG1-K409R-CD20 (human) [2]): 96.3%
